# US20130224191A1, “NOTUM PROTEIN MODULATORS AND METHODS OF USE” (priority 2010, published 2013)
# Entries after “also recorded” stand apart in the source; their conditions may differ.
# T1: Notum (Homo sapiens, UniProt Q6P988)
# T1 sequence (Q6P988 20-496): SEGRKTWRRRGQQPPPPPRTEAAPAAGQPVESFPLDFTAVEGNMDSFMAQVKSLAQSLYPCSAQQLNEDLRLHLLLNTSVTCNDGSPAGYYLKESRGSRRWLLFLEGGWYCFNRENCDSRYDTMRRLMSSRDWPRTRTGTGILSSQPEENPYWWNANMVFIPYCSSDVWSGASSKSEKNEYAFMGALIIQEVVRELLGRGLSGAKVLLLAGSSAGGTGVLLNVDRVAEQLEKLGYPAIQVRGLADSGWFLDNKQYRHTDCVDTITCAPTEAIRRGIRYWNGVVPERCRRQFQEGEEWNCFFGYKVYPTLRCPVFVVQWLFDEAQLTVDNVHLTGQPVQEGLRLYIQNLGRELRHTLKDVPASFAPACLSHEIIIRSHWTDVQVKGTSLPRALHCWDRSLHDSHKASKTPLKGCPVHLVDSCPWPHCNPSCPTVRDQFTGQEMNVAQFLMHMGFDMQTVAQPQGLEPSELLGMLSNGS
# Experiments:
# HCT-116 cells = assay: Cell survival/proliferation, CellTiterGlo, HCT-116; assay type: cell-based, human
# Procedure: To determine whether Notum protein impacts cell proliferation and/or apoptosis of human colorectal cancer cells, HCT-116 cells or mouse lineage-depleted NTX tumor cells (i.e. human tumor cells) were plated as described below and exposed to recombinant hNotum (e.g. hNotum-His or hNotum-hFc) and anti-Notum antibodies. Cell numbers were then assessed 12-14 days later.
# Cells were then incubated for 14 days at 37° C., 5% CO2 and 5% O2 and the number of viable cells was assessed using Promega's CellTiterGlo assay kit per the manufacturer's instructions. For the HCT-116 cell line (a commercially available colorectal tumor cell line), cells were plated at 2,000 cells per well in DMEM+1% FBS, followed 24-hours later by the addition of serum free DMEM containing recombinant human Notum in the presence or absence of monoclonal antibodies SC2.D2.2 or SC2.10B3. HCT-116 cells were then incubated for 12 days at 37° C., 5% CO2 and cell viability was assessed with Promega's CellTiterGlo assay kit. Higher readings are indicative of higher viable cell counts.
# macaque Notum N141D = assay: Neutralization of point mutated macaque Notum, 4-MUH assay; assay type: biochemical
# Procedure: In addition to the assays described in Examples 23 and 24, a fluorescent esterase substrate, 4-methylumbelliferyl heptanoate (Sigma), can be used to measure the activity of hydrolases using standard assay conditions (Richardson and Smith, 2007, PMID: 17620441; Jacks and Kircher, 1967, PMID: 5582971). Briefly, 4-MUH was dissolved in DMSO to a final concentration of 1.2 mM. This substrate was diluted 1:10 into assay buffer (0.1M Tris, pH 7.5, 50 mM NaCl, 0.05% Brij) and incubated with defined amounts of Notum enzyme or point-mutated Notum enzymes, and enzymatic release of the fluorescent molecule 4-methylumbelliferone monitored (355 nm excitation, 460 nm emission) using a Wallac Victor3 Multilabel Counter (Perkin Elmer).
# Similarly, the macaque residue at this position was point mutated to the human residue (N141D). […] However, these point mutants differed in their ability to be neutralized by SC2.D2.2 (FIG. 26).
# hNotum-Fc = target: T2, hNotum-Fc (Homo sapiens, UniProt Q6P988); assay: Triton X114 partition assay, blocking of hNotum-Fc; assay type: biochemical; conditions: hNotum-Fc preincubated with antibody
# T2 construct: IL-2 signal peptide (N); made in house; host or cells: CHO-S
# From the text: If Notum directly acts upon Wnt3A to delipidate the protein, this cleavage should result in a change in the hydrophobicity of the protein, which can be measured by a change in its partitioning behavior between aqueous and detergent phases in a Triton X114 partition assay (Bordier, 1981, PMID: 6257680): lipidated Wnt3A will be found in the […], whereas delipidated Wnt3A should show up in the […] (Willert et al., 2003, PMID: 12717451). […] An equal volume of 4.5% Triton X114 was added to the mixture, the mixture incubated on ice for 5 minutes, then at 37° C. for five minutes, before separating the phases using centrifugation at 2000×g for five minutes at room temperature. Following separation each sample was adjusted to normalize the ionic strength and Triton X114 content before analyzing the aliquots by PAGE electrophoresis. After running the gel the protein bands were transferred to a membrane for immunoblotting using an anti-rhWnt3A antibody (Cell Signaling Technology). Bands were visualized using SuperSignal West Pico Chemiluminescent substrate (Thermo Fisher Scientific).
# Lane 1 is a positive molecular weight marker for rhWnt3A while the presence or absence of reagents in each aliquot is noted above the respective lane (where a is the aqueous fraction and t is Triton X-114 fraction, and the sliding bar indicates the concentration of Notum modulator). […]
# Notum = target: T1, Notum; assay: Neutralization of human Notum activity in 293.TCF luciferase assay; assay type: cell-based; set-up: 8x-His; Strep-tag II; IgK signal peptide/leader of the pSEC-CAG vector (N); made in house; host or cells: HEK293T (adherent) / suspension 293 cells
# Procedure: Using the 293.TCF cells described above, supernatants from hybridomas and/or purified antibodies shown to bind Notum by ELISA assays (Example 9) were screened for their ability to neutralize hNotum-His or hNotum-Fc activity as follows. 2.5×10^4 293.TCF cells were plated per well of a 96-well tissue culture plate in 50 μL of serum-free medium. After 23 hours of serum starvation, 10 μL of DMEM+0.2% FBS containing various Notum proteins at various concentrations were mixed with either 15 μL of supernatant from the hybridoma, or 15 μL of purified antibody at various concentrations, and allowed to incubate for 5 minutes at room temperature. The 25 μL antibody:Notum mixture was then added to the 293.TCF cells. After 1 hour, 25 μL of Wnt3A or control L-cell CM were added to each well. Eighteen hours after addition of CM, 100 μL of One-Glo solution (ProMega Corp.) was added to each well. The contents of each well were then mixed thoroughly to lyse the cells, 100 μL of lysate transferred to black 96-well plates, and the luminescence read after 5 minutes. […]
# T2 sequence (Q6P988 with tags, fused parts or gaps): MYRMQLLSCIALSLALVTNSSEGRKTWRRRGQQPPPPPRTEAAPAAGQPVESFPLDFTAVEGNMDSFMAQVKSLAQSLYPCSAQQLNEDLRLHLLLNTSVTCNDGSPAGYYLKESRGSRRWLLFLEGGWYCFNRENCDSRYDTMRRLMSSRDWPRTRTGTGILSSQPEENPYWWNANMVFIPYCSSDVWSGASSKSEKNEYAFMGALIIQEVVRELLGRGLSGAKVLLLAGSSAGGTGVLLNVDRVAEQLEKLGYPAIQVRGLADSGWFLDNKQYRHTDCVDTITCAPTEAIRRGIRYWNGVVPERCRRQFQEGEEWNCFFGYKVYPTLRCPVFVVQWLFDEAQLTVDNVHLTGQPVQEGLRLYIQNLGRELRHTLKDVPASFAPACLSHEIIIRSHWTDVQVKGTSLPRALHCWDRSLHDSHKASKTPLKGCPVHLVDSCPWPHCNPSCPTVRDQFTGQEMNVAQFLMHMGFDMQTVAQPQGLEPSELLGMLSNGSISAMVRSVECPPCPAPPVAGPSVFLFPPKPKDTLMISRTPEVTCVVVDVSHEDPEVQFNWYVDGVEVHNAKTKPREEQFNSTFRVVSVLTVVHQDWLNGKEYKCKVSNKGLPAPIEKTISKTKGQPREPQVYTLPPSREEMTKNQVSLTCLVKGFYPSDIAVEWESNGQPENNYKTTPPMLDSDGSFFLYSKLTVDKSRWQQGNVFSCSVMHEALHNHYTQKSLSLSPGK
molecule,measurement,setting,value
"SC2.D2.2 (antibody, V domains shown, also called murine SC2.D2.2) VH: DVQLVESGGGLVQPGGSRKISCAASGFTFSSYGMHWVRQAPEKGLEWVAYISSSTVTTYYADTVKGRFTISRDNANNTLFLQMTSLRSEDTAMYYCSRQNWDGGYFDVWGAGTTVTVSS VL: DIVLTQSLASLAVSLGQRATISCRASKSVSSSGYSYMHWYQQKPGQPPKLLIYLASNLESGVPARFSGSGSGTDFTLNIHPVEEEDAATYYCQHSRALPLTFGAGTKLELKR",effect on hNotum induced increase in cell numbers,HCT-116 cells,blocked
same,neutralization of mutant Notum protein,macaque Notum N141D,enabled the antibody to neutralize the mutant protein
same,blocking of Notum induced redistribution of rhWnt3A,hNotum-Fc,can be blocked
same,inhibition of human Notum activity,Notum,acts in a concentration dependent manner to antagonize the effects of added hNotum-His; also recorded: can inhibit the activity of human Notum in a dose dependent fashion; also recorded: specifically inhibit the human version of Notum
